Data reported in PMC11476435, “Functional Relationships between L1CAM, LC3, ATG12, and Aβ” (International Journal of Molecular Sciences, 2024).

B1: mouse L1-LIR peptide containing the extracellular LC3-interacting region (LIR) motif of L1 (peptide)
peptide: SHNGVLTGYLLSYHPVEGESKEQ
notes: 23-amino-acid peptide of mouse L1 with the LIR motif 952LSYHPV957 of the fourth fibronectin type III homologous repeat; source: synthetic peptide, bought: Schafer-N
B2: recombinant human ATG12 (autophagy-related protein 12) (natural protein, UniProt O94817 1-140, looked up)
chain: MAEEPQSVLQLPTSIAAGGEGLTDVSPETTTPEPPSSAAVSPGTEEPAGDTKKKIDILLKAVGDTPIMKTKKWAVERTRTIQGLIDFIKKFLKLVASEQLFIYVNQSFAPSPDQEVGTLYECFGSDGKLVLHYCKSQAWG
notes: source: bought: BIOZOL

Legend:
Settings in all cases: both partners purified
[1] = molecular target: recombinant human LC3B (microtubule-associated protein 1 light-chain 3) (human, UniProt Q9GZQ8 1-120); assay: ELISA; competition: recombinant LC3B, ATG12 or Aβ1-42 coated; L1Fc in solution alone or with a 20-fold molar excess of Aβ, L1-LIR peptide or mutated LIR peptide as competitor, 1 h at room temperature; detected with HRP-coupled anti-Fc antibody
[2] = molecular target: B2; assay: as above
[3] = molecular target: T1, L1Fc, extracellular domain of mouse L1 fused to Fc from human IgG (mouse, UniProt P11627 35-1112); assay: ELISA; recombinant human ATG12 (10 µg/mL) coated on 384-well plates; different concentrations (1–200 µg/mL) of L1Fc or CHL1Fc in solution, 1 h at room temperature; detected with HRP-coupled anti-Fc antibody
T1 construct: The methods say that the Fc fusion presents dimers, not monomeric domains; also called extracellular domain of L1; soluble L1Fc chimera; source: recombinant, production and purification described in [111]
T1 sequence (P11627 35-1112): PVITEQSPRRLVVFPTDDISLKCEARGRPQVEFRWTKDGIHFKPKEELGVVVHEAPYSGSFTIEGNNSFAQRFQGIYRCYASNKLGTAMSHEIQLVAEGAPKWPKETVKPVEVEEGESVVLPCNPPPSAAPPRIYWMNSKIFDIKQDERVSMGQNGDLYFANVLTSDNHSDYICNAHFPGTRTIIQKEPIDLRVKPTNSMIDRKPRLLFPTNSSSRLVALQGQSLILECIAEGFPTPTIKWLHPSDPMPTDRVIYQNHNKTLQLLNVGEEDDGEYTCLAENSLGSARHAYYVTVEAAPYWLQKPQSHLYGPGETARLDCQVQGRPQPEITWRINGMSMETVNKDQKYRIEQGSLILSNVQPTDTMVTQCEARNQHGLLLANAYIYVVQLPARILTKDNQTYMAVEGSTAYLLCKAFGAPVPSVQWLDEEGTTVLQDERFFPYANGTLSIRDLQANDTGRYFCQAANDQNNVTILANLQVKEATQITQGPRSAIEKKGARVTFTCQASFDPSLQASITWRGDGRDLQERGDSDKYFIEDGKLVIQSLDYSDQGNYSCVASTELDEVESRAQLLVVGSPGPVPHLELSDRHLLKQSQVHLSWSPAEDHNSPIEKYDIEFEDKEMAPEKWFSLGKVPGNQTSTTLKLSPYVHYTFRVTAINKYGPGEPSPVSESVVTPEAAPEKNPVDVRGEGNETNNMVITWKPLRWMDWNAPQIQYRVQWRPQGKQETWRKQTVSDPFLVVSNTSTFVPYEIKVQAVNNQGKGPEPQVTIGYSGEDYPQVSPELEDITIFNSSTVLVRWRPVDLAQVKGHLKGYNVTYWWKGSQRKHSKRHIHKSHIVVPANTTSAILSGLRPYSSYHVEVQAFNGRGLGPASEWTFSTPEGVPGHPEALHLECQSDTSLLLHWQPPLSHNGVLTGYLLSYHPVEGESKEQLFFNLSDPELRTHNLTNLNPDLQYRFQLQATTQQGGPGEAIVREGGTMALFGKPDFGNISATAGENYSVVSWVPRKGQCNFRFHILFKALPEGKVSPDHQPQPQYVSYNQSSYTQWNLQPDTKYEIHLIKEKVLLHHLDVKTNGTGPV

binding result [1] | binding result [2] | binding result [3] | Binder
binds | binds | – | B1
– | – | binds | B2
